Results as given in US20080300188A1 (GENEXINE, published 2008).

Key:
[1] = molecular target: T1, C1q (AbD serotech, Cat#. 2221-5504) (UniProt P02745 23-245; P02746 28-253; P02747 29-245); experiment: ELISA, sample coated on strip, C1q added, detected with HRP conjugated anti-C1q
T1 construct: Bought C1q, added at 2 ug/ml
Description: (§1) To investigate whether hFc-5-fused proteins bind to FcγRI and C1q, MabThera® (Rituximab, Roche), hIgG1 (Calbiochem, Cat#, 400120), Enbrel® (etanercept, Amgen), EPO-hFc-5, G-CSF-hFc-5 and p40N303Q-hFc-5 were serially diluted (from 2 ug/ml to 16 ng/ml with 2-fold) and coated on the 8 well strip (COSTAR, New York) overnight at 4° C. To make a standard curve, FcγRI (R&D, cat# BAF1257) or C1q (AbD serotech, Cat#. 2221-5504) were also serially diluted (from 2 ug/ml to 32 ng/ml with 2-fold) and coated on the 8 well strip (COSTAR, New York) overnight at 4° C. After washing each strip of samples with washing buffer (PBS containing 0.05% tween) and blocking with 10% FBS in PBS for 1 hour at RT, FcγRI or C1q were added into each well at 2 ug/ml following incubation for 2 hours at room temperature (RT). All strips were washed with washing buffer. For C1q binding test, HRP conjugated anti-C1q (AbD serotech, cat#. 2221-5004P) was added into each well at 2.5 ug/ml following 30 min incubation at RT under dark condition. For FcγRI binding test, biotinylated anti-FcγRI (R&D, cat#. 1257-FC) was added into each well at 2 ug/ml following 1 hour incubation at RT. After washing them with washing buffer, Streptavidine-HRP (BD, cat#. 554066) diluted with 3,000 fold was added into each strip following 30 minute incubation at RT under dark condition. […]

[2] = molecular target: T2, FcγRI (R&D, cat# BAF1257) (UniProt P12314 16-288, limits assumed); experiment: ELISA, sample coated on strip, FcγRI added, detected with biotinylated anti-FcγRI and streptavidin-HRP
T2 construct: Bought soluble reagent, added at 2 ug/ml; also called FcγR1
Description: as §1

T1 sequence (P02745 23-245 limits assumed, chain 1 of 3): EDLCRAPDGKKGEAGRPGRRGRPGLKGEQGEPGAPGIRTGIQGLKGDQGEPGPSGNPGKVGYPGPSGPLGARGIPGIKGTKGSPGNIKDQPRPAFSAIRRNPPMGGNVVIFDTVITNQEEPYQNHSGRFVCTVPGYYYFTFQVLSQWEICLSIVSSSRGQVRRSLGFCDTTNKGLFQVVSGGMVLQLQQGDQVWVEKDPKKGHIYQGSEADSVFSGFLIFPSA
T1 sequence (P02746 28-253 limits assumed, chain 2 of 3): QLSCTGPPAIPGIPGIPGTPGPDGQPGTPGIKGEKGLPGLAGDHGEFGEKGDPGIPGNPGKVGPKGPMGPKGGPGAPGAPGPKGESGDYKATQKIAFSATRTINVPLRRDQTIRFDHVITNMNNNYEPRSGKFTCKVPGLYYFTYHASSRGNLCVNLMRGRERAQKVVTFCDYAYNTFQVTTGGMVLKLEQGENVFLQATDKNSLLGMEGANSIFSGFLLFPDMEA
T1 sequence (P02747 29-245 limits assumed, chain 3 of 3): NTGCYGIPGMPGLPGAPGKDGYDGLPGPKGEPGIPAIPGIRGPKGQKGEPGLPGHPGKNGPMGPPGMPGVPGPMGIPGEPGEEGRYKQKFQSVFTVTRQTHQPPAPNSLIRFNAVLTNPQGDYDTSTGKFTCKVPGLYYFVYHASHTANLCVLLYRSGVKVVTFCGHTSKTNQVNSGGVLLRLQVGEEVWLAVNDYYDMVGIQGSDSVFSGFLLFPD
T2 sequence (P12314 16-288 limits assumed): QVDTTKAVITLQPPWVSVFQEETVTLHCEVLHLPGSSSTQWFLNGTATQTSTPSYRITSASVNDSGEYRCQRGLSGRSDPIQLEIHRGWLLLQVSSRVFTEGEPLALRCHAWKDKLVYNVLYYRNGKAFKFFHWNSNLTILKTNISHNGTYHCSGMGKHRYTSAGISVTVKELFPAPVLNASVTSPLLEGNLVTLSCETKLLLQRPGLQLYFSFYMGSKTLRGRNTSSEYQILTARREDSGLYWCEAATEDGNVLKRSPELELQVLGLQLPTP

B1: p40N303Q-hFc-5 (Fc fusion)
chain: IWELKKDVYVVELDWYPDAPGEMVVLTCDTPEEDGITWTLDQSSEVLGSGKTLTIQVKEFGDAGQYTCHKGGEVLSHSLLLLHKKEDGIWSTDILKDQKEPKNKTFLRCEAKNYSGRFTCWWLTTISTDLTFSVKSSRGSSDPQGVTCGAATLSAERVRGDNKEYEYSVECQEDSACPAAEESLPIEVMVDAVHKLKYENYTSSFFIRDIIKPDPPKNLQLKPLKNSRQVEVSWEYPDTWSTPHSYFSLTFCVQVQGKSKREKKDRVFTDKTSATVICRKQASISVRAQDRYYSSSWSEWASVPCSRNTGRGGEEKKKEKEKEEQEERETKTPECPSHTQPLGVFLFPPKPKDTLMISRTPEVTCVVVDVSQEDPEVQFNWYVDGVEVHNAKTKPREEQFNSTYRVVSVLTVLHQDWLNGKEYKCKVSNKGLPSSIEKTISKAKGQPREPQVYTLPPSQEEMTKNQVSLTCLVKGFYPSDIAVEWESNGQPENNYKTTPPVLDSDGSFFLYSRLTVDKSRWQEGNVFSCSVMHEALHNHYTQKSLSLSLGK
notes: also called human p40N303Q-hFc-5
binding result [1]: no binding
binding result [2]: no binding
